Source: the Human Domainome abundance scans (Beltran et al. 2025)
± gives the uncertainty stated by the source.

B1: Ankyrin-3, residues 4094 to 4171; numbered along this chain, Q12955 (parent)
chain: MAIVADHLGLSWTELARELNFSVDEINQIRVENPNSLISQSFMLLKKWVTRDGKNATTDALTSVLTKINRIDIVTLLE

Variants of: B1
Assay: abundance fitness (aPCA) (normalised: wild type 0, dead -1); higher = more abundant; growth selection in yeast, the domain comes from the species named
Settings: Homo sapiens
For A2V, the abundance fitness was -0.146 ± 0.049. With I71M the abundance fitness was 0.039 ± 0.062. Variant F21C has an abundance fitness of -1 ± 0.29. I68A gave an abundance fitness of -0.868 ± 0.13. For G53C, the abundance fitness was -0.545 ± 0.15. Work on A60I yielded an abundance fitness of -0.28 ± 0.17. In the case of E25L, the abundance fitness is reported as -0.862 ± 0.12. In the case of S36A, the abundance fitness is reported as -0.609 ± 0.085. Q28S showed an abundance fitness of -0.094 ± 0.055. Variant R30A has an abundance fitness of -0.022 ± 0.064. Work on A16W yielded an abundance fitness of -0.79 ± 0.2. With L65A the abundance fitness was -1.14 ± 0.19. A60Y showed an abundance fitness of -0.417 ± 0.26. With A2R the abundance fitness was 0.149 ± 0.044. For T57W, the abundance fitness was -0.931 ± 0.18. For L76M, the abundance fitness was 0.067 ± 0.23. R30C gave an abundance fitness of -0.112 ± 0.11. L15C gave an abundance fitness of -0.433 ± 0.13. In the case of I38N, the abundance fitness is reported as 0.234 ± 0.25. In the case of Q28M, the abundance fitness is reported as -0.179 ± 0.13. In the case of G53D, the abundance fitness is reported as -0.578 ± 0.13. Work on T66H yielded an abundance fitness of -0.013 ± 0.092. For A60N, the abundance fitness was 0.219 ± 0.18. Variant T50E has an abundance fitness of -0.008 ± 0.075. For D24F, the abundance fitness was -0.621 ± 0.21. F42G gave an abundance fitness of 0.113 ± 0.048. For N27W, the abundance fitness was -0.35 ± 0.097. In the case of A56G, the abundance fitness is reported as -0.613 ± 0.072. In the case of V49N, the abundance fitness is reported as 0.057 ± 0.17. V31G gave an abundance fitness of -0.089 ± 0.047. With K46W the abundance fitness was -0.541 ± 0.13. With D52P the abundance fitness was -0.767 ± 0.21. H7M gave an abundance fitness of -0.12 ± 0.085. Variant T50L has an abundance fitness of 0.041 ± 0.044. With N69S the abundance fitness was -0.29 ± 0.057. L19Q showed an abundance fitness of -0.781 ± 0.22. N27V showed an abundance fitness of -0.373 ± 0.065. L44M gave an abundance fitness of -0.074 ± 0.071. L76N showed an abundance fitness of -0.292 ± 0.31. With T62I the abundance fitness was -0.386 ± 0.17. R70A gave an abundance fitness of -0.918 ± 0.19. V64M gave an abundance fitness of 0.064 ± 0.28. With S39V the abundance fitness was -0.209 ± 0.057. With W48I the abundance fitness was -0.83 ± 0.32. Variant W48R has an abundance fitness of -1 ± 0.23. Variant F42N has an abundance fitness of 0.104 ± 0.22. Variant M43G has an abundance fitness of 0.02 ± 0.048. In the case of R30L, the abundance fitness is reported as -0.033 ± 0.076. Work on N33H yielded an abundance fitness of -0.023 ± 0.16. For T13H, the abundance fitness was -0.178 ± 0.11. Variant H7S has an abundance fitness of -0.358 ± 0.065. For R70V, the abundance fitness was -0.876 ± 0.2. With H7F the abundance fitness was -0.521 ± 0.22. For V49A, the abundance fitness was 0.022 ± 0.051. Work on T75N yielded an abundance fitness of 0.06 ± 0.1. For L45A, the abundance fitness was -0.862 ± 0.13. With L10G the abundance fitness was -0.043 ± 0.052. E18V showed an abundance fitness of -0.148 ± 0.053. With S41N the abundance fitness was -0.748 ± 0.37. With R17P the abundance fitness was -0.869 ± 0.27. Variant S11K has an abundance fitness of -0.761 ± 0.25. With L76F the abundance fitness was -0.231 ± 0.21. With V23N the abundance fitness was 0.097 ± 0.14. N69R gave an abundance fitness of -0.224 ± 0.067. In the case of I38P, the abundance fitness is reported as -0.041 ± 0.066. Work on G9V yielded an abundance fitness of -0.551 ± 0.11. L45S gave an abundance fitness of -0.881 ± 0.12. N35H gave an abundance fitness of -0.266 ± 0.13. T50Y showed an abundance fitness of 0 ± 0.1. For L65K, the abundance fitness was -0.528 ± 0.21. With D59M the abundance fitness was 0.022 ± 0.085. In the case of A5P, the abundance fitness is reported as -0.899 ± 0.26. R17H gave an abundance fitness of -0.182 ± 0.13. With L45G the abundance fitness was -0.906 ± 0.1. Work on D72P yielded an abundance fitness of -0.396 ± 0.12. I73W showed an abundance fitness of -0.793 ± 0.15. With T58N the abundance fitness was -0.168 ± 0.17. In the case of R51K, the abundance fitness is reported as -0.531 ± 0.12. With S39G the abundance fitness was -0.048 ± 0.045. Variant L37C has an abundance fitness of -0.15 ± 0.096. For D52N, the abundance fitness was -0.687 ± 0.41. A2C showed an abundance fitness of -0.077 ± 0.1. For N20Y, the abundance fitness was -0.348 ± 0.12.
